Holding throughout (experiment): SPR; […]; HBS-EP (10 mM HEPES pH 7.4, 150 mM NaCl, 3 mM EDTA, 0.005% Surfactant P20); […]
On the technique in general: SPR reads the build-up and loss of mass on a sensor chip optically.

For test [1], the target named is MeV-H (measles virus hemagglutinin), vaccine strain (measles virus).
In test [2] the target is ectodomain (head domain) of CDV-H, 5VD wild-type strain (canine distemper virus (5VD wild-type strain)).
The target in test [3] is soluble head domain of CDV-H (canine distemper virus hemagglutinin), Kyoto Biken vaccine strain, made in HEK293T cells (canine distemper virus (Kyoto Biken vaccine strain)).

This passage reports Ka and Kd results from paper PMC11268888.

ectodomain of human Nectin-4 (residues 1-333), sequence (Q96NY8 32-333): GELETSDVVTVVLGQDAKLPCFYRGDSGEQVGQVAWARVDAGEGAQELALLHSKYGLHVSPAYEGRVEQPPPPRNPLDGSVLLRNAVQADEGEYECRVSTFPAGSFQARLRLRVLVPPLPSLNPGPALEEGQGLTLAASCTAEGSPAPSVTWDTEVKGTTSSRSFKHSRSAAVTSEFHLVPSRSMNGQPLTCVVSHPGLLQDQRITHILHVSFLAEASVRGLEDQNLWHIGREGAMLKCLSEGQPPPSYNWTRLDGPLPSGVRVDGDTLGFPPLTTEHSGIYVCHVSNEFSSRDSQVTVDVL

By Kd is commonly meant the concentration at which binding is half-saturated. A lower Kd goes with tighter binding. On to “ectodomain of dog Nectin-4 (residues 1-332) (receptor)”, for which the Ka turned out to be 950000 M⁻¹ in test [1], 396000 M⁻¹ in test [2] and 1.06e+06 M⁻¹ in test [3]. Also, the equilibrium dissociation constant (Kd) was determined as 1050 nM in test [1], 2530 nM in test [2] and 942 nM in test [3].

Consider “ectodomain of human Nectin-4 (residues 1-333) (from UniProt Q96NY8 32-333) (receptor)”, for which the Ka in test [1] was 1.5e+06 M⁻¹; in test [2] it was 397000 M⁻¹; in test [3], 1.05e+06 M⁻¹. For the same substance, the equilibrium dissociation constant (Kd) in test [1] is 666 nM; in test [2], 948 nM; in test [3], 2520 nM.
